Reference: patent publication US20250025502A1, “COMPOSITIONS AND METHODS FOR CONTROLLING CELL SIGNALING WITH CHIMERIC RECEPTORS” (GentiBio, Inc., priority 2021, published 2025)

Test system: IL10 signaling pathway (STAT3)
Experiment: SEAP colorimetric assay in reporter cells with RISE10 constructs
Format: cell-based
Protocol: FIG. 8 provides an example of CISC signaling through the IL10 signaling pathway. Cells were treated with IL10 or rapamycin at varying doses.
The signaling activity of RISE10 constructs (FIGS. 2 and 7) was examined. InvivoGen HEK-BLUE™ IL2 reporter cells, in which production of STAT3 (from IL10 signaling) leads to release of secreted embryonic alkaline phosphatase (SEAP), were used. The reporter cells were transfected with different levels of IL10, rapamycin and the RISE10 construct with a synthetic linker, (G4S)×3 (“CISC10 RaL”), or rapamycin and the RISE10 construct with IL10 hinge domains (“CISC10 RhL”). A colorimetric enzyme assay was performed to quantify the secreted embryonic alkaline phosphatase, and the results are shown in FIG. 8.

B1: IL10: interleukin IL10 used as stimulus for comparison in the reporter assay (protein, UniProt P22301 19-178, looked up)
Interleukin-10: SPGQGTQSENSCTHFPGNLPNMLRDLRDAFSRVKTFFQMKDQLDNLLLKESLLEDFKGYLGCQALSEMIQFYLEEVMPQAENQDPDIKAHVNSLGENLKTLRLRLRRCHRFLPCENKSKAVEQVKNAFNKLQEKGIYKAMSEFDIFINYIEAYMTMKIRN
In the case of B1, the “IL10 dose giving similar peak plateau (SEAP)” value is reported as 10 ng/mL.
